Experimental findings from patent US20250332230A1 are described below.

Assay [1] concerns the target Human Alkaline Phosphatase/ALPI Protein (His Tag) (Sino Biological Cat. No. 13225-H08H) (human) (UniProt P09923). The assay is described as follows: sandwich ECL (MSD), capture AbD54140ad; HC01, HIAP nominal 192.0 ng/mL.
Assay [2] has the same target. The assay is described as follows: sandwich ECL (MSD), capture AbD54140ad; HC02, HIAP nominal 192.0 ng/mL.
For assay [3] the target is unchanged. The assay is described as follows: sandwich ECL (MSD), capture AbD54140ad; LC01, HIAP nominal 1.500 ng/mL.
Assay [4] shares this target. The assay is described as follows: sandwich ECL (MSD), capture AbD54140ad; LC02, HIAP nominal 1.500 ng/mL.
Assay [5] shares this target. The assay is described as follows: sandwich ECL (MSD), capture AbD54140ad; MC01, HIAP nominal 12.00 ng/mL.
Assay [6] has the same target. The assay is described as follows: sandwich ECL (MSD), capture AbD54140ad; MC02, HIAP nominal 12.00 ng/mL.
The target is the same in assay [7]. The assay is described as follows: sandwich ECL (MSD), capture AbD54140ad; ST01, HIAP nominal 256.0 ng/mL.
For assay [8] the target is unchanged. The assay is described as follows: sandwich ECL (MSD), capture AbD54140ad; ST02, HIAP nominal 128.0 ng/mL.
Assay [9] shares this target. The assay is described as follows: sandwich ECL (MSD), capture AbD54140ad; ST03, HIAP nominal 64.00 ng/mL.
Assay [10] has the same target. The assay is described as follows: sandwich ECL (MSD), capture AbD54140ad; ST04, HIAP nominal 32.00 ng/mL.
Assay [11] has the same target. The assay is described as follows: sandwich ECL (MSD), capture AbD54140ad; ST05, HIAP nominal 16.00 ng/mL.
The target is the same in assay [12]. The assay is described as follows: sandwich ECL (MSD), capture AbD54140ad; ST06, HIAP nominal 8.000 ng/mL.
The target is the same in assay [13]. The assay is described as follows: sandwich ECL (MSD), capture AbD54140ad; ST07, HIAP nominal 4.000 ng/mL.
For assay [14] the target is unchanged. The assay is described as follows: sandwich ECL (MSD), capture AbD54140ad; ST08, HIAP nominal 2.000 ng/mL.
The target is the same in assay [15]. The assay is described as follows: sandwich ECL (MSD), capture AbD54140ad; ST09, HIAP nominal 1.000 ng/mL.
The target is the same in assay [16]. The assay is described as follows: sandwich ECL (MSD), capture AbD54140ad; ST10, HIAP nominal 0.5000 ng/mL.
The target is the same in assay [17]. The assay is described as follows: sandwich ECL (MSD), capture AbD54140ad; ULOQ01, HIAP nominal 256.0 ng/mL.
Assay [18] has the same target. The assay is described as follows: sandwich ECL (MSD), capture AbD54140ad; ULOQ02, HIAP nominal 256.0 ng/mL.
Assay [19] shares this target. The assay is described as follows: sandwich ECL (MSD), capture AbD54140ad; LLOQ01, HIAP nominal 0.5000 ng/mL.
Assay [20] has the same target. The assay is described as follows: sandwich ECL (MSD), capture AbD54140ad; LLOQ02, HIAP nominal 0.5000 ng/mL.

Chain of UniProt P09923 (P09923 20-503 limits assumed): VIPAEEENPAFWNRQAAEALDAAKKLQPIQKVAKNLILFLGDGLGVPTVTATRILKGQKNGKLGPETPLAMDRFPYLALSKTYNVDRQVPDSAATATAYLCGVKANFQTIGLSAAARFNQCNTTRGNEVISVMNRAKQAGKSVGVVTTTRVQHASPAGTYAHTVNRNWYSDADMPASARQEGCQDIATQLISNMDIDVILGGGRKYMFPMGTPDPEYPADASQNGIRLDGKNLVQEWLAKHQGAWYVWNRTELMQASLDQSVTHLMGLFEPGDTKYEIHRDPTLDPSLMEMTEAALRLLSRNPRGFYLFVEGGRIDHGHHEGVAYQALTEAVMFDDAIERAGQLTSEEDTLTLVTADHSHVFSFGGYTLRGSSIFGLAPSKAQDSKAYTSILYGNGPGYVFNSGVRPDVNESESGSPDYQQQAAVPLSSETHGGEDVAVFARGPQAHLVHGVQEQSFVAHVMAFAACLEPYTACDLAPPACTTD

Turning to “sulfo-tagged anti-HIAP monoclonal antibody AbD54130ad from BioRad”, the Instrument Response is 444000 in [1]; 456000 in assay [2]; 9110 in assay [3]; 9430 in [4]; 64000 in [5]; 68900 in assay [6]. In addition, the Instrument Response was 504000 in assay [7]; 416000 in assay [8]; 301000 in assay [9]; 186000 in assay [10]; 101000 in assay [11]; 54400 in assay [12]. The Instrument Response in assay [13] was 27300; in assay [14], 13000; in assay [15] it was 7040; in assay [16] it was 3760; in [17] it was 508000; in assay [18], 528000. The Instrument Response came out at 3360 in assay [19] and 3260 in [20].
